Laboratory results from patent US20080207517A1 (INSTITUT PASTEUR, published 2008).

Biological target: the molecule itself
Assay: gel filtration (Superdex 75) at 10 µM, self-association
Protocol: The oligomeric states of peptides were determined by filtration as described in Traincard et al., 2003. In brief, 500 μl samples were loaded on a SUPERDEX™ 75 HR 10/30 column equilibrated in 50 mM Tris-HCl pH 8.0 containing 200 mM NaCl and 0.1 mM DDM, at a constant flow rate of 0.4 ml/min. The presence of the DDM detergent was added in the equilibrium buffer to minimize the adsorption in the column and to increase the peptide recovery. The column was calibrated in the same equilibrium buffer with blue dextran 2000 (void volume), dithioerythritol (total volume), bovine serum albumin (67 kDa, Rs=35.2 Å), ovalbumine (43 kDa, Rs=27.5 Å), chymotrypsinogen A (25 kDa, Rs=21.1 Å), ribonuclease A (13.7 kDa, Rs=16.4 Å), cytochrome C (12.4 kDa, Rs=17.7 Å) and aprotinin (6.5 KDa, Rs=13.5 Å).
The antennapedia sequence is a protein transduction domain (PTD) which adopts an alpha-helical amphiphatic structure (Prochiantz, 2000, Curr. Opin. Cell Biol.). […] To examine the effect of N-fusion of the antennapedia peptide on the oligomerization properties of the CC2 and the LZ peptides, the present inventors analyzed peptides containing or not containing the antennapedia sequence at their N-terminus by gel filtration. […]

B1: LZ (WT) (peptide)
peptide: Ac-LKAQADIYKADFQAERHAREKLVEKKEYLQEQLEQLQREFNKL-NH2
notes: Forms a dimer at 10 uM in gel filtration; also called LZ peptide; LZ wild type
binding result: binds
